# T1: coumarin-labeled 10-mer peptide substrate REVNFEVEFR
# T1 chain: REVNFEVEFR
# B1: mouse brain BACE-1 (MES membrane preparation from wild-type mice) (protein)
# chain: ETDEESEEPGRRGSFVEMVDNLRGKSGQGYYVEMTVGSPPQTLNILVDTGSSNFAVGAAPHPFLHRYYQRQLSSTYRDLRKGVYVPYTQGKWEGELGTDLVSIPHGPNVTVRANIAAITESDKFFINGSNWEGILGLAYAEIARPDDSLEPFFDSLVKQTHIPNIFSLQLCGAGFPLNQTEALASVGGSMIIGGIDHSLYTGSLWYTPIRREWYYEVIIVRVEINGQDLKMDCKEYNYDKSIVDSGTTNLRLPKKVFEAAVKSIKAASSTEKFPDGFWLGEQLVCWQAGTTPWNIFPVISLYLMGEVTNQSFRITILPQQYLRPVEDVATSQDDCYKFAVSQSSTGTVMGAVIMEGFYVVFDRARKRIGFAVSACHVHDEFRTAAVEGPFVTADMEDCGYNIPQTDESTLMTIAYVMAAICALFMLPLCLMVCQWRCLRCLRHQHDDFADDISLLK
# How the values were obtained:
# [1] = molecular target: T1, coumarin-labeled 10-mer peptide …
# [2] = molecular target: statine-Val (a peptide BACE-1 inhibitor)
protein,measurement,setting,value
B1,hydrolysis of substrate (HPLC),[1],hydrolysis was observed to be about 15% of total substrate that had been added in the reaction
same,"substrate cleavage (HPLC product peak), brain extract",[2],BACE-1 inhibitor's Stat(V) and Merck-3 led to complete abolition of substrate cleavage

# Reference: US20070292895
